Assays:
Assay in all cases: peptide array
Peptide_012 = biological target: T1, Peptide_012 (human)
T1 peptide: SEEPGSETSDAKSTP
Description: (§1) Chimeric IgG antibodies were diluted to a concentration of 5 μg/mL in 3% bovine serum albumin in Tris-buffered saline (10 mM Tris, pH 7.5, 150 mM NaCl) supplemented with 0.05% Tween®20 (3% BSA-TBST). Diluted antibodies were allowed to bind to peptides printed onto slides for 2 hours at room temperature as described in the PepStar™ user manual (JPT Technologies). Following extensive washing (5×5 minutes with TBST), slides were incubated with secondary antibodies goat anti-human IgG, Alexa Fluor 568 conjugate, 1 μg/mL in 3% BSA-TBST) for 1 hour at room temperature. After extensive washing, (5×5 minutes with TBST, then 5×5 minutes with ultrapure water), slides were dried overnight and imaged using an Opera Phenix™ system in the 568 nm channel. Images were aligned to peptide array definition files using Galviewer software obtained from JPT Technologies and ImageJ software with control human IgG serving as landmarks.
(§2) Full-length human Tau (encoded by the microtubule-associated protein Tau isoform 2 gene (MAPT), amino acid sequence NCBI Reference Sequence No. NP_005901.2, SEQ ID NO: 1, variant designation “2N4R”) was divided into 15 amino acid peptides, offset by 5 amino acids (overlapping by 10 amino acids). Peptides were synthesized and covalently attached to silica slides in triplicate with a spot size of 0.5 mm (obtained from JPT Technologies, Berlin, Germany). Antibodies muIgG were diluted to a concentration of 30 μg/mL in 3% bovine serum albumin in Tris-buffered saline (10 mM Tris, pH 7.5, 150 mM NaCl) supplemented with 0.05% Tween® 20 (3% BSA-TBST). Diluted antibodies were allowed to bind to peptides printed onto slides for 2 hours at room temperature as described in the Pepstar™ user manual (JPT Technologies). Following extensive washing (5×5 min TBST), slides were incubated with secondary antibodies (donkey anti-mouse IgG, Alexafluor 647 conjugate, 5 μg/mL in 3% BSA-TBST) for 1 hour at room temperature. After extensive washing, (5×5 minutes TBST, 5×5 minutes ultrapure water), slides were dried under a stream of nitrogen and imaged on the Opera Phenix in the 647 nm channel. Images were aligned to peptide array definition file using Galviewer software obtained from JPT Technologies and ImageJ software with control mouse IgG serving as landmarks.

Peptide_011 = biological target: T2, Peptide_011 (human)
T2 peptide: PTEDGSEEPGSETSD
Description: as §1, §2

Peptide_009 = biological target: T3, Peptide_009 (human)
T3 peptide: AGLKESPLQTPTEDG
Description: as §1, §2

Peptide_007 = biological target: T4, Peptide_007 (human)
T4 peptide: MHQDQEGDTDAGLKE
Description: as §1, §2

Peptide_004 = biological target: T5, Peptide_004 (human)
T5 peptide: GTYGLGDRKDQGGYT
Description: as §1, §2

Peptide_001 = biological target: T6, Peptide_001 (human)
T6 peptide: MAEPRQEFEVMEDHA
Description: as §1, §2

Peptide_019 = biological target: T7, Peptide_019 (human)
T7 peptide: AQPHTEIPEGTTAEE
Description: as §1, §2

Peptide_017 = biological target: T8, Peptide_017 (human)
T8 peptide: DEGAPGKQAAAQPHT
Description: as §1, §2

Peptide_015 = biological target: T9, Peptide_015 (human)
T9 peptide: TAEDVTAPLVDEGAP
Description: as §1, §2

Peptide_013 = biological target: T10, Peptide_013 (human)
T10 peptide: SETSDAKSTPTAEDV
Description: as §1, §2

Peptide_035 = biological target: T11, Peptide_035 (human)
T11 peptide: IPAKTPPAPKTPPSS
Description: as §1, §2

Peptide_034 = biological target: T12, Peptide_034 (human)
T12 peptide: ANATRIPAKTPPAPK
Description: as §1, §2

Peptide_032 = biological target: T13, Peptide_032 (human)
T13 peptide: GAAPPGQKGQANATR
Description: as §1, §2

Peptide_029 = biological target: T14, Peptide_029 (human)
T14 peptide: KAKGADGKTKIATPR
Description: as §1, §2

Peptide_028 = biological target: T15, Peptide_028 (human)
T15 peptide: GSDDKKAKGADGKTK
Description: as §1, §2

Peptide_026 = biological target: T16, Peptide_026 (human)
T16 peptide: RMVSKSKDGTGSDDK
Description: as §1, §2

Peptide_045 = biological target: T17, Peptide_045 (human)
T17 peptide: REPKKVAVVRTPPKS
Description: as §1, §2

Peptide_044 = biological target: T18, Peptide_044 (human)
T18 peptide: PTPPTREPKKVAVVR
Description: as §1, §2

Peptide_042 = biological target: T19, Peptide_042 (human)
T19 peptide: PGSRSRTPSLPTPPT
Description: as §1, §2

Peptide_039 = biological target: T20, Peptide_039 (human)
T20 peptide: SGDRSGYSSPGSPGT
Description: as §1, §2

Peptide_059 = biological target: T21, Peptide_059 (human)
T21 peptide: CGSKDNIKHVPGGGS
Description: as §1, §2

Peptide_051 = biological target: T22, Peptide_051 (human)
T22 peptide: PDLKNVKSKIGSTEN
Description: as §1, §2

Peptide_050 = biological target: T23, Peptide_050 (human)
T23 peptide: APVPMPDLKNVKSKI
Description: as §1, §2

Peptide_068 = biological target: T24, Peptide_068 (human)
T24 peptide: QVEVKSEKLDFKDRV
Description: as §1, §2

Peptide_064 = biological target: T25, Peptide_064 (human)
T25 peptide: SKVTSKCGSLGNIHH
Description: as §1, §2

Peptide_063 = biological target: T26, Peptide_063 (human)
T26 peptide: KPVDLSKVTSKCGSL
Description: as §1, §2

Peptide_082 = biological target: T27, Peptide_082 (human)
T27 peptide: RHLSNVSSTGSIDMV
Description: as §1, §2

Peptide_081 = biological target: T28, Peptide_081 (human)
T28 peptide: GDTSPRHLSNVSSTG
Description: as §1, §2

Peptide_079 = biological target: T29, Peptide_079 (human)
T29 peptide: EIVYKSPVVSGDTSP
Description: as §1, §2

Peptide_077 = biological target: T30, Peptide_077 (human)
T30 peptide: NAKAKTDHGAEIVYK
Description: as §1, §2

Peptide_076 = biological target: T31, Peptide_076 (human)
T31 peptide: LTFRENAKAKTDHGA
Description: as §1, §2

Peptide_074 = biological target: T32, Peptide_074 (human)
T32 peptide: GGNKKIETHKLTFRE
Description: as §1, §2

Peptide_071 = biological target: T33, Peptide_071 (human)
T33 peptide: QSKIGSLDNITHVPG
Description: as §1, §2

Peptide_085 = biological target: T34, Peptide_085 (human)
T34 peptide: DSPQLATLADEVSAS
Description: as §1, §2

Peptide_084 = biological target: T35, Peptide_084 (human)
T35 peptide: SIDMVDSPQLATLAD
Description: as §1, §2

Measured: binding result

B1: chimeric IgG clone 1D10 (antibody, V domains shown)
VH: EVQLQQSGAELVRPGASVKLSCTASGFNIKDSLMHWMKQRPEQGLEWIGWIDPEDGETKYAPKFQDKATLTADTSSNAAYLQLSSLTSEDTAIYYCVRGDWDGGYWGQGTTLTVSS
VL: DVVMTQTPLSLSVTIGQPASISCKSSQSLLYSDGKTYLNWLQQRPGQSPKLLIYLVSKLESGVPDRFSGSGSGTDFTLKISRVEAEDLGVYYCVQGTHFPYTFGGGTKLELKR
notes: mouse-human chimeric IgG from HEK293
binds: Peptide_051
no binding (tested: 5 ug/mL): all other assays above

B2: chimeric IgG clone 1G7 (antibody, V domains shown)
VH: EVQLQQSGAEVVRPGASVKLSCTTSGFNIKDSLMHWLKQRPEQGLEWIGWIDPEDGETKYAPKFQDKATITADTSSNTAYLQLSSLTSGDTAIYYCARRDWEGPWGQGTLVTVSA
VL: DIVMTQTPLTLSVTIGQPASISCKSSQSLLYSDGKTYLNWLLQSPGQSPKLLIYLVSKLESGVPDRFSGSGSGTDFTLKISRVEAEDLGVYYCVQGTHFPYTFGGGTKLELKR
notes: as for B1
binds: Peptide_051
no binding (tested: 5 ug/mL): all other assays above

Source: patent US20200216522A1 (DENALI THERAPEUTICS, published 2020)
